Measurements taken from patent US20220324969A1 (MYTHIC THERAPEUTICS, published 2022).
Residue numbers refer to the chain shown, from its start. Names and notes keep the numbering of the source.

B1: MYT2629 (antibody, V domains shown)
VH: QVQLQQPGAEVVKPGASVKMSCKASGYTFTSYYIHWIKQTPGQGLEWVGVIYPGNDDISYNQKFQGKATLTADKSSTTAYMQLSSLTSEDSAVYYCAREVRLRYFDVWGQGTTVTVSS
VL: EIVLTQSPGSLAVSPGERVTMSCKSSQSVFFSSSQHNYLAWYQQIPGQSPRLLIYWASTRESGVPDRFTGSGSGTDFTLTISSVQPEDLAIYYCHQYLSSRTFGQGTKLEIK
notes: IgG; IMGN779 VL variant #13 (K36H)
B2: MYT2638 (antibody, V domains shown)
VH: B1 VH
VL: B1 VL with H36K, R60H
notes: IgG; IMGN779 VL variant #22 (R60H)
B3: MYT2647 (antibody, V domains shown)
VH: B1 VH
VL: B1 VL with H36K, R101H
notes: IgG; IMGN779 VL variant #31 (R101H)
B4: MYT2632 (antibody, V domains shown)
VH: B1 VH
VL: B1 VL with H36K, L39H
notes: IgG; IMGN779 VL variant #16 (L39H)
B5: MYT2648 (antibody, V domains shown)
VH: B1 VH
VL: B1 VL with H36K, T102H
notes: IgG; IMGN779 VL variant #32 (T102H)
B6: MYT2642 (antibody, V domains shown)
VH: B1 VH
VL: B1 VL with H36K, Q96H
notes: IgG; IMGN779 VL variant #26 (Q96H)
B7: MYT2634 (antibody, V domains shown)
VH: B1 VH
VL: B1 VL with H36K, W56H
notes: IgG; IMGN779 VL variant #18 (W56H)
B8: MYT2636 (antibody, V domains shown)
VH: B1 VH
VL: B1 VL with H36K, S58H
notes: IgG; IMGN779 VL variant #20 (S58H)
B9: MYT2635 (antibody, V domains shown)
VH: B1 VH
VL: B1 VL with H36K, A57H
notes: IgG; IMGN779 VL variant #19 (A57H)
B10: MYT2641 (antibody, V domains shown)
VH: B1 VH
VL: B1 VL with H36K, H95A
notes: IgG; IMGN779 VL variant #25 (H95A)
B11: MYT2640 (antibody, V domains shown)
VH: B1 VH
VL: B1 VL with H36K, S62H
notes: IgG; IMGN779 VL variant #24 (S62H)
B12: MYT2639 (antibody, V domains shown)
VH: B1 VH
VL: B1 VL with H36K, E61H
notes: IgG; IMGN779 VL variant #23 (E61H)
B13: MYT2631 (antibody, V domains shown)
VH: B1 VH
VL: B1 VL with H36K, Y38H
notes: IgG; IMGN779 VL variant #15 (Y38H)
B14: MYT2644 (antibody, V domains shown)
VH: B1 VH
VL: B1 VL with H36K, L98H
notes: IgG; IMGN779 VL variant #28 (L98H)
B15: MYT2637 (antibody, V domains shown)
VH: B1 VH
VL: B1 VL with H36K, T59H
notes: IgG; IMGN779 VL variant #21 (T59H)
B16: MYT2643 (antibody, V domains shown)
VH: B1 VH
VL: B1 VL with H36K, Y97H
notes: IgG; IMGN779 VL variant #27 (Y97H)
B17: MYT2646 (antibody, V domains shown)
VH: B1 VH
VL: B1 VL with H36K, S100H
notes: IgG; IMGN779 VL variant #30 (S100H)
B18: MYT2630 (antibody, V domains shown)
VH: B1 VH
VL: B1 VL with H36K, N37H
notes: IgG; IMGN779 VL variant #14 (N37H)
B19: MYT2645 (antibody, V domains shown)
VH: B1 VH
VL: B1 VL with H36K, S99H
notes: IgG; IMGN779 VL variant #29 (S99H)
B20: MYT1335 (antibody, V domains shown)
VH: QVQLVQSGAEVKKPGASVKVSCKASHYTFTNYDINWVRQAPGQGLEWIGWIYPGDGSTKYNEKFKAKATLTADTSTSTAYMELRSLRSDDTAVYYCASGYEDAMDYWGQGTTVTVSS
VL: DIQMTQSPSSLSASVGDRVTINCKASQDINSYLSWFQQKPGKAPKTLIYRANRLVDGVPSRFSGSGSGQDYTLTISSLQPEDFATYYCLQYDEFPLTFGGGTKVEIK
notes: IgG; vadastuximab VH variant #1 (G26H)
B21: MYT1337 (antibody, V domains shown)
VH: B20 VH with H26G, T28H
VL: B20 VL
notes: IgG; vadastuximab VH variant #3 (T28H)
B22: MYT1347 (antibody, V domains shown)
VH: B20 VH with H26G, Y52H
VL: B20 VL
notes: IgG; vadastuximab VH variant #13 (Y52H)
B23: MYT1349 (antibody, V domains shown)
VH: B20 VH with H26G, G54H
VL: B20 VL
notes: IgG; vadastuximab VH variant #15 (G54H)
B24: MYT1348 (antibody, V domains shown)
VH: B20 VH with H26G, P53H
VL: B20 VL
notes: IgG; vadastuximab VH variant #14 (P53H)
B25: MYT1340 (antibody, V domains shown)
VH: B20 VH with H26G, N31H
VL: B20 VL
notes: IgG; vadastuximab VH variant #6 (N31H)
B26: MYT1346 (antibody, V domains shown)
VH: B20 VH with H26G, I51H
VL: B20 VL
notes: IgG; vadastuximab VH variant #12 (I51H)
B27: MYT1339 (antibody, V domains shown)
VH: B20 VH with H26G, T30H
VL: B20 VL
notes: IgG; vadastuximab VH variant #5 (T30H)
B28: MYT1341 (antibody, V domains shown)
VH: B20 VH with H26G, Y32H
VL: B20 VL
notes: IgG; vadastuximab VH variant #7 (Y32H)
B29: MYT1336 (antibody, V domains shown)
VH: B20 VH with H26G, Y27H
VL: B20 VL
notes: IgG; vadastuximab VH variant #2 (Y27H)
B30: MYT1345 (antibody, V domains shown)
VH: B20 VH with H26G, W50H
VL: B20 VL
notes: IgG; vadastuximab VH variant #11 (W50H)
B31: MYT1343 (antibody, V domains shown)
VH: B20 VH with H26G, I34H
VL: B20 VL
notes: IgG; vadastuximab VH variant #9 (I34H)
B32: MYT1338 (antibody, V domains shown)
VH: B20 VH with H26G, F29H
VL: B20 VL
notes: IgG; vadastuximab VH variant #4 (F29H)

Molecular target: CD33 (Sino Biological, Cat #12238-H08H) (UniProt P20138 18-259)
Assay: BLI, IgG captured on anti-human Fc sensor, 50 nM CD33, pH 7.4 vs pH 5.4

CD33 (Sino Biological, Cat #12238-H08H), sequence (P20138 18-259 limits assumed): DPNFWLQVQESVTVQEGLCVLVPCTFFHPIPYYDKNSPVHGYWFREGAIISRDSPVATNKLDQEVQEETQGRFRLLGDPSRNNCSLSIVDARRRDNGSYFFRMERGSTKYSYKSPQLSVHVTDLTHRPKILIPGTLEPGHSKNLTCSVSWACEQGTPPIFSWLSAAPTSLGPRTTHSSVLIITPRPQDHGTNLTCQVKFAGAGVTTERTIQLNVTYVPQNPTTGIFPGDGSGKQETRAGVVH

binding result	Binder
binds	B1
binds	B2
binds	B3
binds	B4
binds	B5
binds	B6
binds	B7
binds	B8
binds	B9
binds	B10
binds	B11
binds	B12
binds	B13
binds	B14
binds	B15
binds	B16

binding result	Binder
binds	B17
binds	B18
binds	B19
binds	B20
binds	B21
binds	B22
binds	B23
binds	B24
binds	B25
binds	B26
binds	B27
binds	B28
binds	B29
binds	B30
binds	B31
binds	B32
